Target: the molecule itself
Assay: AUC

B1: dihydroneopterin aldolase from Mycobacterium tuberculosis H37Rv (enzyme)
chain: MADRIELRGLTVHGRHGVYDHERVAGQRFVIDVTVWIDLAEAANSDDLADTYDYVRLASRAAEIVAGPPRKLIETVGAEIADHVMDDQRVHAVEVAVHKPQAPIPQTFDDVAVVIRRSRRGGRGWVVPAGGAV
With B1 the “stoichiometry N” value was 4.

— paper PMC3530388 (Journal of the American Chemical Society, 2012)
